The values below come from article doi:10.1101/2023.04.06.535920 (bioRxiv, 2023).

The target of this test is T1, Fc-tagged recombinant mouse FGL1 full length (mouse, UniProt Q71KU9 23-314).
T1 sequence (looked up): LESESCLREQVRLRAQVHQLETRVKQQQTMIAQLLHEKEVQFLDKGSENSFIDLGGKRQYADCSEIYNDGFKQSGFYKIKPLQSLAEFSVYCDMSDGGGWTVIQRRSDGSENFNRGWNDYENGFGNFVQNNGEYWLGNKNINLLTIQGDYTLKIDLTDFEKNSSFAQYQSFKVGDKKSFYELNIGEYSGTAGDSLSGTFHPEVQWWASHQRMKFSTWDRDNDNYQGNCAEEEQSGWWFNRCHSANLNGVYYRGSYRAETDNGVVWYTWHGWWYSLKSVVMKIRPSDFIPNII
In words: pull-down.

B1: hBMP6 (ligand, human, UniProt P22004 375-513, looked up)
chain: SASSRRRQQSRNRSTQSQDVARVSSASDYNSSELKTACRKHELYVSFQDLGWQDWIIAPKGYAANYCDGECSFPLNAHMNATNHAIVQTLVHLMNPEYVPKPCCAPTKLNAISVLYFDDNSNVILKKYRNMVVRACGCH
Turning to B1, the binding result is given as “binds”.
